Our source for the kcat/Km (cleavage of conjugate, HPLC) values is patent US20020103133.

Series [1] has as its system acetyl-P-L-G-Hof-Orn-L-Dox.
Series [2] has as its system succinyl-P-L-G-Hof-Y-L-Dox.

For MMP-9, the kcat/Km (cleavage of conjugate, HPLC) was 19000 mM⁻¹ s⁻¹ in the series with acetyl-G-P-L-G-L-A-L-Dox; 95000 mM⁻¹ s⁻¹ in the series on acetyl-G-P-L-G-L-L-Dox; 110000 mM⁻¹ s⁻¹ in the series with acetyl-G-P-L-G-L-Y-Dox; 26000 mM⁻¹ s⁻¹ in series [1]; 34000 mM⁻¹ s⁻¹ with acetyl-P-L-G-Hof-Y-L-Dox; 165000 mM⁻¹ s⁻¹ in the series with acetyl-P-L-G-L-A-A-L-Dox. Moreover, the kcat/Km (cleavage of conjugate, HPLC) was 24000 mM⁻¹ s⁻¹ with acetyl-P-L-G-L-A-L-Dox; 130000 mM⁻¹ s⁻¹ in the series with acetyl-P-L-G-L-L-A-L-Dox; 130000 mM⁻¹ s⁻¹ with acetyl-P-L-G-L-L-Dox; 149000 mM⁻¹ s⁻¹ with acetyl-P-L-G-L-L-S-L-Dox; 296000 mM⁻¹ s⁻¹ with acetyl-P-L-G-L-Y-A-L-Dox; 390000 mM⁻¹ s⁻¹ with acetyl-P-L-G-L-Y-L-Dox. Moreover, the kcat/Km (cleavage of conjugate, HPLC) in series [2] is greater than 120000 mM⁻¹ s⁻¹.
